Source: patent US20260242478A1 (published 2026)
Where no end group is shown, it is not given here.

B1: Phage-2803 (peptide)
peptide: VKHVCMPEWMCYWS
modifications: cysteine pairing not given here; also: fused to pIII, displayed on bacteriophage
B2: Phage-2787 (peptide)
peptide: LWKSCTPEWMCAEW
modifications: cysteine pairing not given here; also: fused to pIII, displayed on bacteriophage
B3: Phage-2790 (peptide)
peptide: VMKWCTPSWMCAEA
modifications: cysteine pairing not given here; also: fused to pIII, displayed on bacteriophage
B4: Phage-2799 (peptide)
peptide: ESKWCVPTWMCAEN
modifications: cysteine pairing not given here; also: fused to pIII, displayed on bacteriophage

Molecular target: T1, PSMA Fab
T1 construct: Biotinylated PSMA Fab captured on neutravidin coated plates in the phage ELISA; also called Anti-PSMA Fab; 006 PSMA Fab
Test: clonal phage ELISA on captured PSMA Fab pre-incubated with PSMA antigen as competitor, anti-M13 HRP detection;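 also: crude clonal phage supernatants tested by ELISA, wells first treated with blocking buffer plus PSMA antigen, bound phage read out via HRP-linked anti-M13 antibody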
Protocol: (§1) Clonal phage were harvested as crude supernatants and screened via standard ELISAs. […] Prior to the addition of clonal phage. wells were incubated with blocking buffer and PSMA antigen or blocking buffer alone. Without washing or aspirating, clonal phage supernatants were then added to the wells and incubated for a short time. Wells were then washed followed by detection of bound phage using a horse radish conjugated anti-M13 antibody.

Going from DLKWCVPTWMCNWS [Phage-2775] to GPKWCTPTWMCEFS [Phage-2776], the “phage binding ELISA signal (Anti-PSMA Fab, PSMA antigen present)” value rises from 0.0692 to 0.0754.

Going from GSNWCKPAWMCSVA [Phage-2777] to QDKWCTPTWMCEGL [Phage-2778], the “phage binding ELISA signal (Anti-PSMA Fab, PSMA antigen present)” value rises from 0.0623 to 0.0777.

Compared with DQNWCIPHWMCVGI [Phage-2779], VLNWCTPPWMCSGI [Phage-2780] is lower in “phage binding ELISA signal (Anti-PSMA Fab, PSMA antigen present)” value: 0.0883 for the first, 0.0732 for the second.

First: GWNWCVPQWMCTTS [Phage-2781]
Second: QDKMCRPDWMCMNQ [Phage-2782]
The “phage binding ELISA signal (Anti-PSMA Fab, PSMA antigen present)” value of the first is higher: 0.121 for the first, 0.0706 for the second.

First: VHKMCTPPWMCVTQ [Phage-2783]
Second: DMKLCRPAWMCMHN [Phage-2784]
The “phage binding ELISA signal (Anti-PSMA Fab, PSMA antigen present)” value of the first is higher: 0.0908 for the first, 0.0536 for the second.

Compared with DVKWCTPPWMCLSD [Phage-2785], EENWCIPVWMCERL [Phage-2786] is lower in “phage binding ELISA signal (Anti-PSMA Fab, PSMA antigen present)” value: 0.1 for the first, 0.0721 for the second.

Molecular target: T2, PSMA Fab (006 PSMA Fab) (biotinylated for capture on neutravidin plates (site not stated))
T2 construct: also called Anti-PSMA Fab
Test: clonal phage ELISA on biotinylated PSMA Fab captured on neutravidin plates, anti-M13-HRP detection;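 also: crude clonal phage supernatants added to wells preincubated with PSMA antigen or with blocking buffer only (no wash between), briefly incubated, then washed before detecting bound phage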

B1 and EGKWCTPTWMCQGF [Phage-2804] are the same in “Phage binding ELISA signal, Anti-PSMA Fab” value: 0.57 for the first, 0.57 for the second.

First: MMHWCTPPWMCEFS [Phage-2805]
Second: GATWCTPTWMCTGF [Phage-2806]
The “Phage binding ELISA signal, Anti-PSMA Fab” value of the first is higher: 0.568 for the first, 0.566 for the second.

WENWCIPQWMCGTA [Phage-2807] and MEKWCTPRWMCVGM [Phage-2808] are the same in “Phage binding ELISA signal, Anti-PSMA Fab” value: 0.565 for the first, 0.565 for the second.

VTKLCIPEWMCVIQ [Phage-2809] and MDIWCKPRWMCEEY [Phage-2810] are the same in “Phage binding ELISA signal, Anti-PSMA Fab” value: 0.562 for the first, 0.562 for the second.

First: VPKWCTPSWMCEFT [Phage-2811]
Second: VGPWCIPDWMCDVV [Phage-2812]
The “Phage binding ELISA signal, Anti-PSMA Fab” value of the first is higher: 0.56 for the first, 0.554 for the second.

First: FSKLCTPPWMCSVS [Phage-2813]
Second: PMKWCTPPWMCSYS [Phage-2814]
The “Phage binding ELISA signal, Anti-PSMA Fab” value of the first is higher: 0.543 for the first, 0.538 for the second.

Going from IDKWCVPAWMCSPA [Phage-2815] to GDKWCKPSWMCDFF [Phage-2816], the “Phage binding ELISA signal, Anti-PSMA Fab” value falls from 0.538 to 0.526.

For EAKWCTPPWMCSLV [Phage-2817], the “Phage binding ELISA signal, Anti-PSMA Fab” value was 0.525.

Molecular target: T3, PSMA Fab (biotinylated (site not stated))
T3 construct: also called Anti-PSMA Fab; 006 PSMA Fab
Test: clonal phage ELISA on biotinylated PSMA Fab captured on neutravidin plates, anti-M13 HRP detection;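 also: crude clonal phage supernatants tested, before phage were added, wells were pretreated with PSMA antigen in blocking buffer or with blocking buffer only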

First: B2
Second: SVKWCTPSWMCTEW [Phage-2788]
The “Phage binding ELISA signal, Anti-PSMA Fab” value of the first is higher: 0.606 for the first, 0.601 for the second.

Compared with VGKWCTPEWMCSGF [Phage-2789], B3 is lower in “Phage binding ELISA signal, Anti-PSMA Fab” value: 0.6 for the first, 0.599 for the second.

Going from WEKWCTPSWMCSGI [Phage-2791] to TQHWCTPIWMCEGL [Phage-2792], the “Phage binding ELISA signal, Anti-PSMA Fab” value falls from 0.598 to 0.597.

First: VTNWCTPPWMCEML [Phage-2793]
Second: TEKWCIPQWMCVRT [Phage-2794]
The “Phage binding ELISA signal, Anti-PSMA Fab” value of the first is higher: 0.596 for the first, 0.592 for the second.

Going from FEKWCTPQWMCNSM [Phage-2795] to LNNWCTPAWMCVGY [Phage-2796], the “Phage binding ELISA signal, Anti-PSMA Fab” value falls from 0.59 to 0.589.

Going from ERIWCTPKWMCETF [Phage-2797] to HFKWCIPPWMCLEI [Phage-2798], the “Phage binding ELISA signal, Anti-PSMA Fab” value falls from 0.589 to 0.588.

Going from B4 to DYKWCTPPWMCDSR [Phage-2800], the “Phage binding ELISA signal, Anti-PSMA Fab” value falls from 0.583 to 0.58.

First: SDNWCKPEWMCVGH [Phage-2801]
Second: TPKWCTPAWMCVVS [Phage-2802]
The “Phage binding ELISA signal, Anti-PSMA Fab” value of the first is higher: 0.578 for the first, 0.575 for the second.

Molecular target: T1, PSMA Fab
Test: as above
Protocol: as §1

First: DLKWCVPTWMCNWS [Phage-2775]
Second: GPKWCTPTWMCEFS [Phage-2776]
The “Phage binding ELISA signal, Anti-PSMA Fab” value of the first is higher: 0.639 for the first, 0.638 for the second.

First: GSNWCKPAWMCSVA [Phage-2777]
Second: QDKWCTPTWMCEGL [Phage-2778]
The “Phage binding ELISA signal, Anti-PSMA Fab” value of the first is higher: 0.634 for the first, 0.631 for the second.

Compared with DQNWCIPHWMCVGI [Phage-2779], VLNWCTPPWMCSGI [Phage-2780] is lower in “Phage binding ELISA signal, Anti-PSMA Fab” value: 0.625 for the first, 0.624 for the second.

Going from GWNWCVPQWMCTTS [Phage-2781] to QDKMCRPDWMCMNQ [Phage-2782], the “Phage binding ELISA signal, Anti-PSMA Fab” value falls from 0.623 to 0.621.

VHKMCTPPWMCVTQ [Phage-2783] and DMKLCRPAWMCMHN [Phage-2784] are the same in “Phage binding ELISA signal, Anti-PSMA Fab” value: 0.621 for the first, 0.621 for the second.

Going from DVKWCTPPWMCLSD [Phage-2785] to EENWCIPVWMCERL [Phage-2786], the “Phage binding ELISA signal, Anti-PSMA Fab” value falls from 0.613 to 0.607.

Molecular target: T2, PSMA Fab (006 PSMA Fab)
Test: clonal phage ELISA on captured PSMA Fab pre-incubated with PSMA antigen as competitor, anti-M13-HRP detection;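 also: wells blocked with buffer plus PSMA antigen before phage addition, with blocking buffer alone as the no-competitor control, bound phage detected after washing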
Protocol: as §1

First: B1
Second: EGKWCTPTWMCQGF [Phage-2804]
The “Phage binding ELISA signal, Anti-PSMA Fab in presence of PSMA” value (“Phage binding ELISA signal … of PSMA” below) of the first is lower: 0.0724 for the first, 0.0945 for the second.

Compared with MMHWCTPPWMCEFS [Phage-2805], GATWCTPTWMCTGF [Phage-2806] is higher in “Phage binding ELISA signal … of PSMA” value: 0.0626 for the first, 0.117 for the second.

Compared with WENWCIPQWMCGTA [Phage-2807], MEKWCTPRWMCVGM [Phage-2808] is lower in “Phage binding ELISA signal … of PSMA” value: 0.141 for the first, 0.0734 for the second.

Compared with VTKLCIPEWMCVIQ [Phage-2809], MDIWCKPRWMCEEY [Phage-2810] is higher in “Phage binding ELISA signal … of PSMA” value: 0.0595 for the first, 0.0676 for the second.

First: VPKWCTPSWMCEFT [Phage-2811]
Second: VGPWCIPDWMCDVV [Phage-2812]
The “Phage binding ELISA signal … of PSMA” value of the first is lower: 0.0648 for the first, 0.0755 for the second.

Compared with FSKLCTPPWMCSVS [Phage-2813], PMKWCTPPWMCSYS [Phage-2814] is lower in “Phage binding ELISA signal … of PSMA” value: 0.276 for the first, 0.063 for the second.

First: IDKWCVPAWMCSPA [Phage-2815]
Second: GDKWCKPSWMCDFF [Phage-2816]
The “Phage binding ELISA signal … of PSMA” value of the first is lower: 0.06 for the first, 0.072 for the second.

For EAKWCTPPWMCSLV [Phage-2817], the “Phage binding ELISA signal … of PSMA” value was 0.0546.

Molecular target: T3, PSMA Fab
Test: clonal phage ELISA on captured biotinylated PSMA Fab; competitor: PSMA antigen at saturating concentration
Protocol: as §1

Going from B2 to SVKWCTPSWMCTEW [Phage-2788], the “phage binding ELISA signal (Anti-PSMA Fab, wells pre-incubated with PSMA antigen)” value rises from 0.0991 to 0.104.

Compared with VGKWCTPEWMCSGF [Phage-2789], B3 is higher in “phage binding ELISA signal (Anti-PSMA Fab, wells pre-incubated with PSMA antigen)” value: 0.0562 for the first, 0.0742 for the second.

First: WEKWCTPSWMCSGI [Phage-2791]
Second: TQHWCTPIWMCEGL [Phage-2792]
The “phage binding ELISA signal (Anti-PSMA Fab, wells pre-incubated with PSMA antigen)” value of the first is higher: 0.0859 for the first, 0.0819 for the second.

First: VTNWCTPPWMCEML [Phage-2793]
Second: TEKWCIPQWMCVRT [Phage-2794]
The “phage binding ELISA signal (Anti-PSMA Fab, wells pre-incubated with PSMA antigen)” value of the first is higher: 0.213 for the first, 0.0656 for the second.

Going from FEKWCTPQWMCNSM [Phage-2795] to LNNWCTPAWMCVGY [Phage-2796], the “phage binding ELISA signal (Anti-PSMA Fab, wells pre-incubated with PSMA antigen)” value rises from 0.0699 to 0.084.

Compared with ERIWCTPKWMCETF [Phage-2797], HFKWCIPPWMCLEI [Phage-2798] is higher in “phage binding ELISA signal (Anti-PSMA Fab, wells pre-incubated with PSMA antigen)” value: 0.0657 for the first, 0.298 for the second.

Compared with B4, DYKWCTPPWMCDSR [Phage-2800] is higher in “phage binding ELISA signal (Anti-PSMA Fab, wells pre-incubated with PSMA antigen)” value: 0.0578 for the first, 0.0697 for the second.

Compared with SDNWCKPEWMCVGH [Phage-2801], TPKWCTPAWMCVVS [Phage-2802] is lower in “phage binding ELISA signal (Anti-PSMA Fab, wells pre-incubated with PSMA antigen)” value: 0.0873 for the first, 0.077 for the second.
